Consider 7 molecules from patent US20150307576A1, “FGF-10 COMPLEXES” (PERMEON BIOLOGICS, INC., priority 2012, published 2015).

Residue numbers refer to the chain shown, from its start. Names may count otherwise. Read-outs that look alike come from different tables or passages of the source.

The conditions of data set [1]: mouse, in vivo.
The conditions of data set [2]: mouse, in vivo. The source holds these as a separate data set.
Data set [3] in a line: Cellular distribution, microautoradiography (MARG). The format is in vivo, mice. As to the method: To obtain specific cell-type uptake information in select organs, microautoradiography analysis was performed on selected organs collected at various time points. For microautoradiography analysis (MARG), animals were anesthetized and blood collected, as described above. Tissue samples are trimmed to be approximately 0.5 cm^2, placed into cryosectioning embedding media on a cryosectioning sample holder, and frozen in isopentane that is cooled with liquid nitrogen. Frozen samples were stored in liquid nitrogen until analysis by MARG. For analysis, tissues were cryosectioned at 5 μm under darkroom conditions, and collected onto glass slides that are pre-coated with photographic emulsion (Kodak NTB photographic emulsion). Slides were placed in sealed light-safe slide boxes and allowed to expose the photographic emulsion for 7 days before being developed, fixed and stained with hematoxylin and eosin. All slides were examined for cellular localization using light microscopy.

Another data set relates to Hela cells. The data set can be described thus: Cell penetrating activity, anti-myc flow cytometry. The format is cell-based. To be noted: 1 uM, 20 minutes. As to the method:
On the day prior to the assay, 10^6 Hela cells were plated in each well of a 6-well plate and incubated in the 37° C. CO2 incubator overnight. The cells were washed once with PBS and then were replenished with 1 mL of serum-free DEMEM (A) or media containing 1 uM of the FGF10 domain construct FGF10-myc (B, C, and D) and were incubated for 20 minutes in the 37° C. CO2 incubator. The cells were then washed three times with ice-cold PBS. For (C) and (D), cells were treated with 0.25% trypsin/EDTA and washed three times with PBS. The cells in (D) were fixed for 10 minutes with 1 mL 4% formaldehyde and permealized for 5 minutes with 0.2% saponin. Then 10 uL of 0.1 mg/mL FITC labeled chicken polyclonal anti-myc tag antibody (Abcam #1394) was added to all the cells and incubated at 4° C. in the dark for 2 hours. The cells were washed three times with ice cold PBS. Cells in (A) and (B) were detached with 1 mL 10 mM EDTA. Cells were analyzed using a BD Accuri™ C6 flow cytometer.
A general note: Flow cytometry measures light scatter and fluorescence of single cells or particles in a stream.

Data set [4] can be described thus: Stability following multiple freeze/thaw cycles (protein concentration, analytical SEC). Type of data set: physicochemical. The note with it: two freeze/thaw cycles. As to the method:
The stability of this cell penetrating domain of FGF10 was evaluated following multiple freeze/thaw cycles. To do this, protein concentration measurements and analytical size exclusion chromatography were carried out comparing protein which had undergone zero, one, or two freeze/thaw cycles. […] The study indicated about 75% stability of this protein after two freeze/thaw cycles.
Purified protein was subjected to the indicated number of freeze/thaw cycles (each freeze/thaw cycle consisted of snap-freezing the protein in liquid nitrogen, placing it at −80° C. for a minimum of two hours, and then thawing it on ice) and analyzed by size exclusion chromatography. After each thaw, the protein was subjected to 20,000×g centrifugation to remove any precipitation. The protein concentration of each sample was measured by A280, considering the extinction coefficient (24540) and molecular weight (19.57 kDa). In each case 40 μL of the protein was applied to a Superdex 75 10/300 GL column (GE Healthcare). The column running buffer was the same as the protein storage buffer (20 mM Hepes, pH 7.5, 0.5 M NaCl).

Data set [5] deals with SKOV-3 ovarian cancer cells. The data set can be described thus: SKOV-3 cell viability, MTS assay. The format is cell-based, human. To be noted: 100 uM, 4-hour treatment, 3 days of growth. Background: Tetrazolium dyes change colour on reduction, which living cells bring about.
Data set [6] relates to HepG2, Hela and SW626 cells. The data set can be described thus: Internalization of p16 fusion proteins, flow cytometry. The format is cell-based. To be noted: 2 uM, overnight. As for the experimental part: On the day prior to the assay, HepG2 (hepatoma), Hela cells, and 10^6 SW626 cells (ovarian) were plated in each well of a 6-well plate and incubated in the 37° C. CO2 incubator. The cells were washed once with PBS and then were replenished with 2 mL of growth media containing 2 uM of p16, +36GFP-p16 or FGF10-p16 proteins and were incubated overnight in the 37° C. CO2 incubator. The cells were then washed once with PBS and detached with 0.25% trypsin/EDTA. The cells were fixed for 10 minutes with 1 mL 4% formaldehyde and permeabilized for 5 minutes with 0.5 mL 0.4% saponin. Then 2.5 uL of 1 mg/mL FITC labeled chicken polyclonal anti-myc tag antibody (Abcam #1394) was added to all the cells and incubated at 4° C. in the dark for 2 hours, except for cells treated with +36GFP-p16 (GFP itself was used for detection). The cells were washed twice with ice cold PBS and were analyzed using a BD Accuri™ C6 flow cytometer.

The target in a further data set is FGFR2b receptor (Homo sapiens, UniProt P21802). The note with it: relative to unmodified FGF10; cited from earlier work.
Data set [7] relates to mitogenic activity. The data set can be described thus: Mitogenic activity of FGF10 variants. To be noted: tetramutant vs native FGF10.
Data set [8] deals with mitogenic activity. To be noted: relative to wild-type; cited from earlier work.
Where [9] appears, read: trypsin, fixed and permeabilized.

Sequence of FGFR2b receptor (P21802 22-822 isoform P21802-3 limits assumed): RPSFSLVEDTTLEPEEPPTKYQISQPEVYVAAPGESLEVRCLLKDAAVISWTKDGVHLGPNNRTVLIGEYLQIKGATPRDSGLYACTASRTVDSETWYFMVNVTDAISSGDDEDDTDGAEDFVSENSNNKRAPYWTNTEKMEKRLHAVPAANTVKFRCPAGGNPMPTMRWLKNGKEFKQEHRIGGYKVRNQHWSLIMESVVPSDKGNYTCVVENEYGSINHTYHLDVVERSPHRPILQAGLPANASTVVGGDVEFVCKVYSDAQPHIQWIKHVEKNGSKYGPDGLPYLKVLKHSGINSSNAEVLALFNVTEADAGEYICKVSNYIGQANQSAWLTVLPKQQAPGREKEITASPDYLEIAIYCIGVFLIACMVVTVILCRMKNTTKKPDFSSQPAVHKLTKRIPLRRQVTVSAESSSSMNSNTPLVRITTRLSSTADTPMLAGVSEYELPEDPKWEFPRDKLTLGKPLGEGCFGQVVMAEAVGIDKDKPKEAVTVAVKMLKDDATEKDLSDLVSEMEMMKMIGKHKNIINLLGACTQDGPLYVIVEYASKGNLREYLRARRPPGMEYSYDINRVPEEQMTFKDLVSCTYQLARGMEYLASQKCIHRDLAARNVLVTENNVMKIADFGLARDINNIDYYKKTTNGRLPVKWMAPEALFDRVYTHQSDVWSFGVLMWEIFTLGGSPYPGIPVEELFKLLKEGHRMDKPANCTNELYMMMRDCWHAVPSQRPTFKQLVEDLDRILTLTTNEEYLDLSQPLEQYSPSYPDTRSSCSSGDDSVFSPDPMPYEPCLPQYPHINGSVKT

On to FGF10, for which, in [1], the “levels of injected protein in liver, spleen, kidney, urinary bladder, adrenal gland, thyroid gland” value was “high levels”. The “partitioning between plasma compartment and blood cell compartment” value in data set [2] is reported as “favor the plasma compartment”. The “cellular distribution in kidney” value in data set [3] (kidney MARG) is “uniformly distributed throughout the kidney”. In addition, in data set [3] (liver MARG), the “cellular distribution in liver” value is “uniformly distributed throughout the liver tissue including in hepatocytes”. Further, in the data set on Hela cells (no trypsin), the “cells with protein present on the cell membrane” value is reported as 98.8%. For the same molecule, the “cells stained positive for FGF10 after trypsin treatment (internalized)” value in the data set on Hela cells (setting [9]) was “almost all the cells stained positive”. Besides, the “stability after freeze/thaw cycles” value in data set [4] (listed as His6-FGF10-myc) is 75%; in data set [4] (listed as Hisx6-FGF10-Myc) it was “about 75%”.
Turning to `CC(=O)c1c(C)c2cnc(Nc3ccc(N4CCNCC4)cn3)nc2n(C2CCCC2)c1=O` [PD-0332991], the “inhibition of cell proliferation” value in data set [5] was “complete inhibition of cell proliferation”.

B1: FGF10-p16: fusion protein of FGF10 domain and full length human p16, SEQ ID NO: 6 (protein)
chain: MEQKLISEEDLGSGRHVRSYNHLQGDVRWRKLFSFTKYFLKIEKNGKVSGTKKENCPYSILEITSVEIGVVAVKAINSNYYLAMNKKGKLYGSKEFNNDCKLKERIEENGYNTYASFNWQHNGRQMYVALNGKGAPRRGQKTRRKNTSAHFLPMVVHSGHGGGGSGGGGSMEPAAGSSMEPSADWLATAAARGRVEEVRALLEAGALPNAPNSYGRRPIQVMMMGSARVAELLLLHGAEPNCADPATLTRPVHDAAREGFLDTLVVLHRAGARLDVRDAWGRLPVDLAEELGHRDVARYLRAAAGGTRGSNHARIDAAEGPSDIPDGHGHHHHHH
For the molecule B1, the “treated cells stained positive” value in data set [6] (setting [9]) is about 30%.

B2: FGF10 E158K/K195A: FGF10 mutant with two substitutions E158K/K195A; domain variant in SEQ ID NO: 8 (protein)
chain: GRHVRSYNHLQGDVRWRKLFSFTKYFLKIEKNGKVSGTKKENCPYSILEITSVEIGVVAVKAINSNYYLAMNKKGKLYGSKEFNNDCKLKERIEKNGYNTYASFNWQHNGRQMYVALNGKGAPRRGQKTRRANTSAHFLPMVVHS
B2: the “decrease in binding to the FGFR2b receptor” value in the data set with FGFR2b receptor is reported as “approximately 4 fold”.

B3: tetramutant: variant of FGF10 domain with four substitutions at positions 78, 114, 158, 195, SEQ ID NO: 10 (protein)
chain: B2 chain with R15A, T51R, K95A
As for B3, the mitogenic activity entry in the data set on mitogenic activity [7] was “reduced mitogenic activity”.

B4: FGF10 R78A: FGF10 mutant with one substitution R78A; domain variant in SEQ ID NO: 9 (protein)
chain: B2 chain with R15A, K95E, A132K
For B4, in the data set with FGFR2b receptor, the “decrease in binding to the FGFR2b receptor” value is “approximately 4 fold”. The mitogenic activity result in the data set with mitogenic activity [8] is reported as “significant decrease”.

B5: p16: human p16 tumor suppressor protein alone, SEQ ID NO: 5 (protein, listed as Homo sapiens)
chain: MEPAAGSSMEPSADWLATAAARGRVEEVRALLEAGALPNAPNSYGRRPIQVMMMGSARVAELLLLHGAEPNCADPATLTRPVHDAAREGFLDTLVVLHRAGARLDVRDAWGRLPVDLAEELGHRDVARYLRAAAGGTRGSNHARIDAAEGPSDIPD
As to B5, the cell penetration entry in data set [6] is “does not”.
